Assays:
[1] = molecular target: hemagglutinin (HA) of influenza virus B/Florida/04/06 (Yamagata) (influenza B virus); experiment: cell-based or functional assay
[2] = molecular target: hemagglutinin (HA) of influenza virus B/Harbin/7/94 (Yamagata) (influenza B virus); experiment: cell-based or functional assay
[3] = molecular target: hemagglutinin (HA) of influenza virus H10N7 A/Chick/Germany/N/49 (influenza A virus); experiment: cell-based or functional assay
[4] = molecular target: hemagglutinin (HA) of influenza virus H10N8 A/Jiangxi/346/2013 (influenza A virus); experiment: cell-based or functional assay
[5] = molecular target: hemagglutinin (HA) of influenza virus H11N9 A/Northern Pintail/MPC2085/07 (influenza A virus); experiment: cell-based or functional assay
[6] = molecular target: hemagglutinin (HA) of influenza virus H12N5 A/Env/MPK659/09 (influenza A virus); experiment: cell-based or functional assay
[7] = molecular target: hemagglutinin (HA) of influenza virus H1N1 A/Solomon Islands/3/2006 (IVR 145) (influenza A virus); experiment: cell-based or functional assay
[8] = molecular target: hemagglutinin (HA) of influenza virus H2N2 A/Guiyang/1/57 (influenza A virus); experiment: cell-based or functional assay
[9] = molecular target: hemagglutinin (HA) of influenza virus H3N2 A/HK/1/68-MA (influenza A virus); experiment: cell-based or functional assay
[10] = molecular target: hemagglutinin (HA) of influenza virus H3N2 A/Johannesburg/33/94 (influenza A virus); experiment: cell-based or functional assay
[11] = molecular target: hemagglutinin (HA) of influenza virus H3N2 A/Victoria/210/09 (influenza A virus); experiment: cell-based or functional assay
[12] = molecular target: hemagglutinin (HA) of influenza virus H4N6 A/Great Cormorant/MPB1683/06 (influenza A virus); experiment: cell-based or functional assay
[13] = molecular target: hemagglutinin (HA) of influenza virus H6N8 A/Eurasian Wigeon/MPD411/07 (influenza A virus); experiment: cell-based or functional assay
[14] = molecular target: hemagglutinin (HA) of influenza virus H7N7 A/Netherlands/219/2003 (influenza A virus); experiment: cell-based or functional assay
[15] = molecular target: hemagglutinin (HA) of influenza virus H7N7 A/Northern Shoveler/MPF518/08 (influenza A virus); experiment: cell-based or functional assay
[16] = molecular target: hemagglutinin (HA) of influenza virus H7N9 A/Anhui/1/13 (influenza A virus); experiment: cell-based or functional assay
[17] = molecular target: hemagglutinin (HA) of influenza virus H8N4 A/Eurasian Wigeon/MPH571/08 (influenza A virus); experiment: cell-based or functional assay
[18] = molecular target: recombinant HA of B/Brisbane/60/08 (Victoria) (influenza B virus); experiment: biolayer interferometry (Octet), steady-state fit, geometric mean, pH 7.4
[19] = molecular target: recombinant HA of H1N1 A/Brisbane/59/07 (influenza A virus); experiment: as above
[20] = molecular target: recombinant HA of H3N2 A/HK/1/68-MA (influenza A virus); experiment: as above
[21] = molecular target: recombinant HA of H3N2 A/Wisconsin/67/05 (influenza A virus); experiment: as above
[22] = molecular target: recombinant HA of H7N3 A/NIBRG/60 (A/mallard/NL/12/00) (influenza A virus); experiment: as above
[23] = molecular target: recombinant HA of H7N9 A/Hangzhou/1/2013 (influenza A virus); experiment: as above

B1: MD2407 (bispecific antibody)
chain: EVQLVESGGGLVQPGGSLRLSCAVSISIFDIYAMDWYRQAPGKQRDLVATSFRDGSTNYADSVKGRFTISRDNAKNTLYLQMNSLKPEDTAVYLCHVSLYRDPLGVAGGMGVYWGKGALVTVSSGGGGSGGGGSEVQLVESGGGLVQAGGSLKLSCAASGRTYAMGWFRQAPGKEREFVAHINALGTRTYYSDSVKGRFTISRDNAKNTEYLEMNNLKPEDTAVYYCTAQGQWRAAPVAVAAEYEFWGQGTQVTVSSGGGGSGGGGSEVQLVESGGGLVQPGGSLRLSCAATGFTLENKAIGWFRQTPGSEREGVLCISKSGSWTYYTDSMRGRFTISRDNAENTVYLQMDSLKPEDTAVYYCATTTAGGGLCWDGTTFSRLASSWGQGTQVTVSSGGGGSGGGGSEVQLVESGGGLVQPGGSLKLSCAASGFTFSTSWMYWLRQAPGKGLEWVSVINTDGGTYYADSVKDRFTISRDNAKDTLYLQMSSLKSEDTAVYYCAKDWGGPEPTRGQGTQVTVSS
Question: How did the average neutralization titer [1] turn out when B1 was run?
Answer: 7.6 nM

Question: What about the average neutralization titer [2] of the same binder?
Answer: 6.4 nM

Question: What about the average neutralization titer [3] of the same binder?
Answer: 13.2 nM

Question: What about the average neutralization titer [4] of the same binder?
Answer: 30.4 nM

Question: And the average neutralization titer [5]?
Answer: 34.5 nM

Question: What about the average neutralization titer [6] of the same binder?
Answer: > 1000 nM

Question: What about the average neutralization titer [7] of the same binder?
Answer: 5.4 nM

Question: What about the average neutralization titer [8] of the same binder?
Answer: 126 nM

Question: What about the average neutralization titer [9] of the same binder?
Answer: 25.9 nM

Question: And the average neutralization titer [10]?
Answer: 11.6 nM

Question: And the average neutralization titer [11]?
Answer: 6.5 nM

Question: And the average neutralization titer [12]?
Answer: 4.8 nM

Question: What about the average neutralization titer [13] of the same binder?
Answer: 20.9 nM

Question: And the average neutralization titer [14]?
Answer: 33 nM

Question: What about the average neutralization titer [15] of the same binder?
Answer: 36.1 nM

Question: What about the average neutralization titer [16] of the same binder?
Answer: 64.6 nM

Question: And the average neutralization titer [17]?
Answer: 15.1 nM

Question: And the Kd [18]?
Answer: 3.1 nM

Question: And the Kd [19]?
Answer: 2.8 nM

Question: And the Kd [20]?
Answer: 2.2 nM

Question: What about the Kd [21] of the same binder?
Answer: 0.5 nM

Question: And the Kd [22]?
Answer: 1.2 nM

Question: What about the Kd [23] of the same binder?
Answer: 1.7 nM
